Reference: patent US20210054016, “Enzymatic RNA Capping Method” (NEW ENGLAND BIOLABS, INC., published 2021)

Target: Vaccinia capping enzyme (VCE) (Vaccinia virus, UniProt P04298;P04318 P04298:1-844,P04318:1-287)
Assay: Cap50, 37 C, 30 min, 500 nM RNA, 1 mM MgCl2; 0.94 at 45 C, 4.08 at 50 C, 30.00 at 55 C

Question: Which EC50 does the source give for GUAGAACUUCGUCGAGUACGCUCAA (ssRNA, 5' triphosphate) [RNA1] here?
Answer: The EC50 was 3.06 nM.
